The experiment has as its target HLA-Cw*0102 (human (endogenous in T2)).
The molecule “p24 Gag162-171 (from UniProt P04591 162-171) (peptide)” had an HLA-Cw*0102 expression on peptide-pulsed T2 cells (antibody DT9, flow cytometry) as compared to non-peptide pulsed T2 cells greater than 5 fold.

As for “p24 Gag176-185 (from UniProt P04591 176-185) (peptide)”, the HLA-Cw*0102 expression on peptide-pulsed T2 cells (antibody DT9, flow cytometry) as compared to non-peptide pulsed T2 cells was greater than 5 fold.

“p24 Gag146-155 (from UniProt P04591 146-155) (peptide)” returned an HLA-Cw*0102 expression on peptide-pulsed T2 cells (antibody DT9, flow cytometry) as compared to non-peptide pulsed T2 cells greater than 5 fold.

Molecule “p24 Gag164-173 (from UniProt P04591 164-173) (peptide)” registered an HLA-Cw*0102 expression on peptide-pulsed T2 cells (antibody DT9, flow cytometry) as compared to non-peptide pulsed T2 cells greater than 5 fold.

For “p24 Gag177-186 (from UniProt P04591 177-186) (peptide)”, the HLA-Cw*0102 expression on peptide-pulsed T2 cells (antibody DT9, flow cytometry) as compared to non-peptide pulsed T2 cells is greater than 5 fold.

Regarding AAEWDRLHPV [p24 Gag209-218 (…)], the HLA-Cw*0102 expression on peptide-pulsed T2 cells (antibody DT9, flow cytometry) as compared to non-peptide pulsed T2 cells is greater than 5 fold.

LKALGPAATL [p24 Gag334-343 (…)] yielded an HLA-Cw*0102 expression on peptide-pulsed T2 cells (antibody DT9, flow cytometry) as compared to non-peptide pulsed T2 cells greater than 5 fold.

Molecule VIPMFSALSE [p24 Gag168-177 (…)] registered an HLA-Cw*0102 expression on peptide-pulsed T2 cells (antibody DT9, flow cytometry) as compared to non-peptide pulsed T2 cells greater than 5 fold.

In the case of SDIAGTTSTL [p24 Gag234-243 (…)], the HLA-Cw*0102 expression on peptide-pulsed T2 cells (antibody DT9, flow cytometry) as compared to non-peptide pulsed T2 cells is greater than 5 fold.

Values taken from publication PMC3395618.
